# US20130171156
# Numbering of substitutions follows the chain as printed.
# B1: “converted” BMP-1-3 protein (protein)
# chain: AATSRPERVWPDGVIPFVIGGNFTGSQRAVFRQAMRHWEKHTCVTFLERTDEDSYIVFTYRPCGCCSYVGRRGGGPQAISIGKNCDKFGIVVHELGHVVGFWHEHTRPDRDRHVSIVRENIQPGQEYNFLKMEPQEVESLGETYDFDSIMHYARNTFSRGIFLDTIVPKYEVNGVKPPIGQRTRLSKGDIAQARKLYKCPACGETLQDSTGNFSSPEYPNGYSAHMHCVWRISVTPGEKIILNFTSLDLYRSRLCWYDYVEVRDGFWRKAPLRGRFCGSKLPEPIVSTDSRLWVEFRSSSNWVGKGFFAVYEAICGGDVKKDYGHIQSPNYPDDYRPSKVCIWRIQVSEGFHVGLTFQSFEIERHDSCAYDYLEVRDGHSESSTLIGRYCGYEKPDDIKSTSSRLWLKFVSDGSINKAGFAVNFFKEVDECSRPNRGGCEQRCLNTLGSYKCSCDPGYELAPDKRRCEAACGGFLTKLNGSITSPGWPKEYPPNKNCIWQLVAPTQYRISLQFDFFETEGNDVCKYDFVEVRSGLTADSKLHGKFCGSEKPEVITSQYNNMRVEFKSDNTVSKKGFKAHFFSDKDECSKDNGGCQQDCVNTFGSYECQCRSGFVLHDNKHDCKEAGCDHKVTSTSGTITSPNWPDKYPSKKECTWAISSTPGHRVKLTFMEMDIESQPECAYDHLEVFDGRDAKAPVLGRFCGSKKPEPVLATGSRMFLRFYSDNSVQRKGFQASHATECGGQVRADVKTKDLYSHAQFGDNNYPGGVDCEWVIVAEEGYGVELVFQTFEVEEETDCGYDYMELFDGYDSTAPRLGRYCGSGPPEEVYSAGDSVLVKFHSDDTITKKGFHLRYTSTKFQDTLHSRK
# B2: placental BMP-1-3 protein (protein)
# chain: B1 chain with L373Q
# Experiments:
# [1] = molecular target: type IV collagen
# [2] = molecular target: calmodulin, P0DP23
Protein,in vitro processing (enzyme activity) [1],in vitro processing (enzyme activity) [2]
B1,which properties were not exhibited with the “converted” BMP-1-3 protein,which properties were not exhibited with the “converted” BMP-1-3 protein
B2,processed calmodulin and type IV collagen,processed calmodulin and type IV collagen
